{
  "source": "patent US20240166738A1",
  "about": "(priority 2021, published 2024)",
  "molecules": {"B1": {"name": "TM-86: anti-TMEM106B monoclonal antibody; VH SEQ ID NO: 491, VL SEQ ID NO: 526 (antibody, V domains shown)", "VH": "EVQLQQSGPVLVKPGASVKMSCKASGYTFTDYYIHWVKQSHGRSLEWIGVISPYNDNTNYNQKFKGKATLTVDKSSSTAYMELNSLTSEDSAVYYCVRTYYSNYFDYWGQGTTLTVSS", "VL": "DIVMTQSPSSLSVSAGEKVTMSCKSSQSLLNSGNQKNYLAWHQQRPGQPPKLLIYGASTRESGVPDRFTGSGSGTEFTLTISSVQAEDLAVYYCQNDHSYPLTFGAGTKLELK", "modifications": "Variable Heavy Chain -- TM-86; Variable Light Chain -- TM-86"}, "B2": {"name": "TM-28: anti-TMEM106B monoclonal antibody; CDR-H1-3 SEQ ID NO: 8, 59, 102; CDR-L1-3 SEQ ID NO: 142, 166, 190 (antibody, V domains shown)", "VH": "EVQLQQSGPVLVKPGPSVKISCMASVFTFNDYYIHWVKQSHGKSLEWIGLVYPYNGGTNYNQNFKGKATLTVDTSSRTAYMELNSLTSEDSAVYYCARSYFSNPIGYWGQGTLVTVSE", "VL": "B1 VL with A15V, M21V, H42Y, R45K, E76D"}, "B3": {"name": "TM-15: anti-TMEM106B monoclonal antibody; CDR-H1-3 SEQ ID NO: 15, 49, 92; CDR-L1-3 SEQ ID NO: 133, 171, 197 (antibody, V domains shown)", "VH": "QVQLQQPGAEFVRPGASVKLSCKASGYTFTNYWITWVKQRPGHGLEWIGDIYPGSGNSNYNESFKRKATLTVDTSSSTAYMHLSSQTSEDSAVYFCARKAYGGFPYWGQGTLVTVSA", "VL": "DIQMTQSPASLSVSVGETVTITCRVSENIYNNLAWYQQKQEKSPQLLVFAATNLADGVPSRFSGSGSGTQFSLKINSLQSEDFGTYYCQHFWDTPFTFGSGTKLEIK"}, "B4": {"name": "TM-72: anti-TMEM106B monoclonal antibody; VH SEQ ID NO: 477, VL SEQ ID NO: 512 (antibody, V domains shown)", "VH": "QVQLQQPGAELVKPGTSVKLSCKASGSTFTNYWMHWVMQRPGQGLEWIGNIDPSDSDTHYNQKFKDRAKLTVDKSSSTAYMQLSGLTSEDSAVYYCARSRGGYYDYGEAMDYWGQGTSVTVSS", "VL": "DIVMTQAAPSVPVTPGESVSISCRSSKSLLHTNGNTYLFWFIQRPGQSPHLLIYRKSNLASGVPDRFSGSGSGTAFTLRISRVEAEDVGVYYCMQHLEYPFTFGSGTKLEIK", "modifications": "Variable Heavy Chain -- TM-72; Variable Light Chain -- TM-71, TM-72"}, "B5": {"name": "TM-30: anti-TMEM106B monoclonal antibody; CDR-H1-3 SEQ ID NO: 21, 61, 104; CDR-L1-3 SEQ ID NO: 144, 160, 208 (antibody, V domains shown)", "VH": "QVQLQQSGPELVKPGASVKLSCKASDNTFTNYDVNWVRQRPGQGLEWIGWIYPRDGTTIYNEKFKGRATLTVDTSSSTAYMELHSLTSEDSAVFFCARTLPQAMDYWGQGTSVTVSS", "VL": "DVLMTQSPLSLPVSLGDQVSISCRSSQTIVHRNGNTYLEWYLQKPGQSPKLLIYKVSNRFSGVPDRFSGSGSGTDFTLKISRVEAEDLGVYYCFQGSHLPWTFGGGTKLEIK"}, "B6": {"name": "TM-29: anti-TMEM106B monoclonal antibody; CDR-H1-3 SEQ ID NO: 20, 60, 103; CDR-L1-3 SEQ ID NO: 143, 168, 207 (antibody, V domains shown)", "VH": "QVQLRQSGAELVRPGASVKLSCKASGYTFTDYYINWVKQRPGQGLEWIARIYPGSGYTYYNEKFKGKATLTAEGSSNTAYMQLSSLTSEDSAVYFCANHYTNPFAYWGQGTLVTVSA", "VL": "DIVMTQAAFSNPVTLGTSASISCRSSKSLLHYNGITYLYWYLQKPGQSPQLLIYQMSNLASGVPDRFSSSGSGTDFTLRISRVEAEDVGVYYCAQNLELPYTFGGGTKLEIK"}, "B7": {"name": "TM-63: anti-TMEM106B monoclonal antibody; VH SEQ ID NO: 469, VL SEQ ID NO: 505 (antibody, V domains shown)", "VH": "QVQLQQPGAELVKFGASVKLSCKASGYTFTSFWMHWVKQRPGQGLEWIGNIDPSDSETHYSQKFKDKATLTVDRSSNTAYIQLSSLTSEDSAVYYCARSSNWDNFDYWGQGTTVTVSS", "VL": "DIVMTQASPSVSVTPGESVSISCRSSQSLLHVNGNTYLYWFLQRPGRSPRLLIYRMSNLASGVPDRFSGSGSGTAFTLRISRVEAEDVGVYYCMQHLQYPFSFGSGTKLEMK", "modifications": "Variable Heavy Chain -- TM-63; Variable Light Chain -- TM-63"}, "B8": {"name": "TM-64: anti-TMEM106B monoclonal antibody; VH SEQ ID NO: 470, VL SEQ ID NO: 506 (antibody, V domains shown)", "VH": "QVQLQQPGAELVKPGASVKLSCKASGYTFTSYWMHWVKQRPGHGLEWIGNIDPSDSDTHYNQNFRGKATLTVDKFSTTAYMHLSSLTSEDSAVYYCARSRGGTYDYGEAMDYWGQGTSVTVSS", "VL": "B4 VL with I42L, Q47R, H50Q, K56M", "modifications": "Variable Heavy Chain -- TM-64; Variable Light Chain -- TM-64"}, "B9": {"name": "TM-78: anti-TMEM106B monoclonal antibody; VH SEQ ID NO: 483, VL SEQ ID NO: 518 (antibody, V domains shown)", "VH": "QVQLQQPGAELVKPGASVKLSCKASGYTFTNHWMHWVRQRPGQGLEWIGNIDPSDSDTHYNHKFKDKATLIVDKSSSTAYLQLSSLTSEDSAVFYCARSRGGYYDYGEAMDYWGQGTSVTVSS", "VL": "B4 VL with A8T, V11I, T32V, I42L, H50Q, K56M", "modifications": "Variable Heavy Chain -- TM-78; Variable Light Chain -- TM-78"}, "B10": {"name": "TM-88: anti-TMEM106B monoclonal antibody; VH SEQ ID NO: 493, VL SEQ ID NO: 528 (antibody, V domains shown)", "VH": "EAQLQQSGPVLVKPGASVKMSCKTSGYTFTDYYINWVKQSHGKSLEWIGVINPYSGATYYTQKFKGKATLTVDKSSSTAYMELNSQTSEDSAVYYCARGGYDYGHWYFDVWGTGTTVTVSS", "VL": "ETTVTQSPASLSMAIGEKVTIRCITSSDIDDHMNWYRQKPGEPPEFLISEGNALRPGVPSRFSSSGYGTDFIFTIENILSEDVADYYCLQSDNLPLTFGAGTKLELK", "modifications": "Variable Heavy Chain -- TM-88; Variable Light Chain -- TM-88"}, "B11": {"name": "TM-84: anti-TMEM106B monoclonal antibody; VH SEQ ID NO: 489, VL SEQ ID NO: 524 (antibody, V domains shown)", "VH": "QVQLQQSGAELVKPGASVKMSCKASGYTFTTFPIEWMKQNHGKSLEWIGNFHPYNDDTKYNEKFKGKATLTVEKSSSTVYLELSRLTSDDSAVYYCARYFYGGMDYWGQGTSVTVSS", "VL": "DIQMTQSPASLSVSVGETVTITCRASENIYSSLGWYHQKQGKSPQLLVFAATNLADGVPSRFSGSGSGTQYSLKINSLQSEDFGTYYCQHLWSVPWTFGGGTKLEIK", "modifications": "Variable Heavy Chain -- TM-84; Variable Light Chain -- TM-84"}, "B12": {"name": "TM-5: anti-TMEM106B monoclonal antibody; CDR-H1-3 SEQ ID NO: 6, 39, 82; CDR-L1-3 SEQ ID NO: 124, 164, 188 (antibody, V domains shown)", "VH": "QVQLQQSGTELARPGASVKVSCKASGYIFTTYGITWVKQRGGQGLEWIGEIYPRSDNTYYNEKFKDKATLTADKSSSTAYMELRSLTSEDSAVYFCARSKGSGTGDYWGQGTTVTVSS", "VL": "DIQMTQSPASLSASVGETVTITCRASENIYIYLAWYQQKQGKTPQLLVYNGKMLAENVPSRFSGSGSGTQFSLKINSLQPEDFGSYYCQHHYGSPPAFGAGTKLELK"}},
  "note": "Where a chain is given by its changes, count along the chain named.",
  "data": [
    {"biological_target": "GST-TMEM106B (truncated, comprising amino acids 122-210 of SEQ ID NO:1) (Homo sapiens, UniProt Q9NUM4)", "sequence (Q9NUM4 122-210)": "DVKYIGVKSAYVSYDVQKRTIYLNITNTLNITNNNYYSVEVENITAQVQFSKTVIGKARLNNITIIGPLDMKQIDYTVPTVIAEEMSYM", "test": "Pre-mix epitope binning of anti-TMEM106B antibodies (Carterra / Lake Pharma)", "format": "binding", "set-up": "key to epitope bin: Bin 1: competes for binding to the same or overlapping TMEM106B region as the TM1, TM17, TM22, TM26, TM79, and/or TM82 antibodies; Bin 2: competes for binding to the same or overlapping TMEM106B region as the TM3, TM9, TM10, TM11, TM12, TM13, TM18, TM19, TM21, TM24, TM25, TM32, TM35, TM37, TM42, TM45, TM48, TM54, TM59, TM60, TM61, and/or TM76 antibodies; Bin 3: competes for binding to the same or overlapping TMEM106B region as the TM7, TM15, TM83, and/or TM84 antibodies; Bin 4: competes for binding to the same or overlapping TMEM106B region as the TMS, TM28, TM29, TM30, TM63, TM64, TM72, TM78, TM80, TM86, and/or TM88 antibodies; Bin 5: does not bind to a truncated TMEM106B comprising amino acids 122-210 of SEQ ID NO:1", "conditions": "competition for binding to truncated GST-TMEM106B (amino acids 122-210)", "procedure": "(§1) Monoclonal anti-TMEM106B antibodies were immobilized to a CMD 50M chip (Xantec # SPMXCMD5OM lot# SCCMD50M0416). The running buffer was HBS-EP+ with 1 mg/mL BSA. The GST-TMEM106B (truncated, comprising amino acids 122-210 of SEQ ID NO:1) antigen was prepared at a final concentration of 55 nM (corresponding to 2 μg/mL) and mixed with the competing analyte anti-TMEM106B antibodies at a final concentration of 333 nM (corresponding to 50 μg/mL) or compared to a buffer control. Samples were injected for 5 minutes over the array and regenerated after every cycle with 1 minute of two parts Pierce IgG-Elution buffer (ThermoFisher Cat#21004) and 1 part of 10 mM Glycine, pH 2.0 (Carterra).\n(§2) Anti-TMEM106B antibodies sorted into various competing bins and resulting binning profiles. […] Antibodies within Bin 3 or Bin 4 partially block Bin 2 antibodies.\nas §1, with “SPMXCMD50M” for “SPMXCMD5OM”, “lmg/ml” for “1 mg/mL”, “(truncated)” for “(truncated, comprising amino acids 122-210 of SEQ ID NO:1)”, “μg/ml)” for “μg/mL)”", "values": [
      {"molecule": "B1", "epitope bin": "Bin 4"},
      {"molecule": "B2", "epitope bin": "Bin 4"},
      {"molecule": "B3", "epitope bin": "Bin 3"},
      {"molecule": "B4", "epitope bin": "Bin 4"},
      {"molecule": "B5", "epitope bin": "Bin 4"},
      {"molecule": "B6", "epitope bin": "Bin 4"},
      {"molecule": "B7", "epitope bin": "Bin 4"},
      {"molecule": "B8", "epitope bin": "Bin 4"},
      {"molecule": "B9", "epitope bin": "Bin 4"},
      {"molecule": "B10", "epitope bin": "Bin 4"},
      {"molecule": "B11", "epitope bin": "Bin 3"},
      {"molecule": "B12", "epitope bin": "Bin 4"}
    ]},
    {"biological_target": "GST-TMEM106B (truncated, comprising amino acids 122-210 of SEQ ID NO:1) (Homo sapiens, UniProt Q9NUM4)", "test": "Pre-mix epitope binning of anti-TMEM106B antibodies (Carterra / Lake Pharma)", "format": "binding", "set-up": "key to epitope bin: Bin 1: competes for binding to the same or overlapping TMEM106B region as the TM1, TM17, TM22, TM26, TM79, and/or TM82 antibodies; Bin 2: competes for binding to the same or overlapping TMEM106B region as the TM3, TM9, TM10, TM11, TM12, TM13, TM18, TM19, TM21, TM24, TM25, TM32, TM35, TM37, TM42, TM45, TM48, TM54, TM59, TM60, TM61, and/or TM76 antibodies; Bin 3: competes for binding to the same or overlapping TMEM106B region as the TM7, TM15, TM83, and/or TM84 antibodies; Bin 4: competes for binding to the same or overlapping TMEM106B region as the TMS, TM28, TM29, TM30, TM63, TM64, TM72, TM78, TM80, TM86, and/or TM88 antibodies; Bin 5: does not bind to a truncated TMEM106B comprising amino acids 122-210 of SEQ ID NO:1", "conditions": "epitope bin number; pre-mix binning on truncated GST-TMEM106B", "procedure": "as §1, §2\nas §1, with “SPMXCMD50M” for “SPMXCMD5OM”, “lmg/ml” for “1 mg/mL”, “(truncated)” for “(truncated, comprising amino acids 122-210 of SEQ ID NO:1)”, “μg/ml)” for “μg/mL)”", "values": [
      {"molecule": "B1", "Binding Community/Bin": 4},
      {"molecule": "B2", "Binding Community/Bin": 4},
      {"molecule": "B3", "Binding Community/Bin": 3},
      {"molecule": "B4", "Binding Community/Bin": 4},
      {"molecule": "B5", "Binding Community/Bin": 4},
      {"molecule": "B6", "Binding Community/Bin": 4},
      {"molecule": "B7", "Binding Community/Bin": 4},
      {"molecule": "B8", "Binding Community/Bin": 4},
      {"molecule": "B9", "Binding Community/Bin": 4},
      {"molecule": "B10", "Binding Community/Bin": 4},
      {"molecule": "B11", "Binding Community/Bin": 3},
      {"molecule": "B12", "Binding Community/Bin": 4}
    ]}
  ]
}
